Changes are numbered by the printed parent chain. Names and notes keep the numbering of the source.
T1: TNFR1 (Homo sapiens, UniProt P19438)
T1 chain: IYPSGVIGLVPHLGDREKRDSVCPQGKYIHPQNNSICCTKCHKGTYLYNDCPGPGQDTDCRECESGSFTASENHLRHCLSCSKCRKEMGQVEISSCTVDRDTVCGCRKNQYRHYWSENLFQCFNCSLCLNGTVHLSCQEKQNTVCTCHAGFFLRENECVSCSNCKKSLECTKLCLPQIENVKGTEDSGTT

B1: Y22Q (designed binder)
chain: MTLQELLREEALRRAEAEAFRQALELLAEKFPEQKEYLLDLAEEIESQIRSLSGVDVEDVRKFLDKEWAWVKELLAEHPAELAEVEAARAARLAELRAEVEAKVAA
B2: R14D (designed binder)
chain: B1 chain with R14D, Q22Y
B3: E84G (designed binder)
chain: B1 chain with Q22Y, E84G
B4: A28F (designed binder)
chain: B1 chain with Q22Y, A28F
B5: A105L (designed binder)
chain: B1 chain with Q22Y, A105L
B6: E43C (designed binder)
chain: B1 chain with Q22Y, E43C
B7: E33M (designed binder)
chain: B1 chain with Q22Y, E33M
B8: L6Q (designed binder)
chain: B1 chain with L6Q, Q22Y
B9: L39I (designed binder)
chain: B1 chain with Q22Y, L39I
B10: D65F (designed binder)
chain: B1 chain with Q22Y, D65F
B11: V104H (designed binder)
chain: B1 chain with Q22Y, V104H
B12: E77S (designed binder)
chain: B1 chain with Q22Y, E77S
B13: L82Q (designed binder)
chain: B1 chain with Q22Y, L82Q
B14: A98D (designed binder)
chain: B1 chain with Q22Y, A98D
B15: Q4C (designed binder)
chain: B1 chain with Q4C, Q22Y
B16: I49V (designed binder)
chain: B1 chain with Q22Y, I49V
B17: E84Q (designed binder)
chain: B1 chain with Q22Y, E84Q
B18: E44C (designed binder)
chain: B1 chain with Q22Y, E44C
B19: A19R (designed binder)
chain: B1 chain with A19R, Q22Y
B20: A23Y (designed binder)
chain: B1 chain with Q22Y, A23Y
B21: K35D (designed binder)
chain: B1 chain with Q22Y, K35D
B22: A91I (designed binder)
chain: B1 chain with Q22Y, A91I
B23: A15M (designed binder)
chain: B1 chain with A15M, Q22Y
B24: E84M (designed binder)
chain: B1 chain with Q22Y, E84M
B25: E67L (designed binder)
chain: B1 chain with Q22Y, E67L
B26: R14A (designed binder)
chain: B1 chain with R14A, Q22Y
B27: A23F (designed binder)
chain: B1 chain with Q22Y, A23F
B28: H78F (designed binder)
chain: B1 chain with Q22Y, H78F
B29: E77N (designed binder)
chain: B1 chain with Q22Y, E77N
B30: Q34A (designed binder)
chain: B1 chain with Q22Y, Q34A
B31: E58L (designed binder)
chain: B1 chain with Q22Y, E58L
B32: L6P (designed binder)
chain: B1 chain with L6P, Q22Y
B33: E67Y (designed binder)
chain: B1 chain with Q22Y, E67Y
B34: W70N (designed binder)
chain: B1 chain with Q22Y, W70N
B35: R13E (designed binder)
chain: B1 chain with R13E, Q22Y
B36: P32F (designed binder)
chain: B1 chain with Q22Y, P32F
B37: V100M (designed binder)
chain: B1 chain with Q22Y, V100M
B38: F31K (designed binder)
chain: B1 chain with Q22Y, F31K
B39: S47W (designed binder)
chain: B1 chain with Q22Y, S47W
B40: E58P (designed binder)
chain: B1 chain with Q22Y, E58P
B41: W70G (designed binder)
chain: B1 chain with Q22Y, W70G
B42: R61N (designed binder)
chain: B1 chain with Q22Y, R61N
B43: S51Y (designed binder)
chain: B1 chain with Q22Y, S51Y
B44: A17L (designed binder)
chain: B1 chain with A17L, Q22Y
B45: A17N (designed binder)
chain: B1 chain with A17N, Q22Y
B46: L93S (designed binder)
chain: B1 chain with Q22Y, L93S
B47: G54I (designed binder)
chain: B1 chain with Q22Y, G54I
B48: L27D (designed binder)
chain: B1 chain with Q22Y, L27D
B49: D40R (designed binder)
chain: B1 chain with Q22Y, D40R
B50: R13W (designed binder)
chain: B1 chain with R13W, Q22Y
B51: L26I (designed binder)
chain: B1 chain with Q22Y, L26I
B52: D40T (designed binder)
chain: B1 chain with Q22Y, D40T
B53: E81L (designed binder)
chain: B1 chain with Q22Y, E81L
B54: R8L (designed binder)
chain: B1 chain with R8L, Q22Y
B55: A15C (designed binder)
chain: B1 chain with A15C, Q22Y
B56: A23Q (designed binder)
chain: B1 chain with Q22Y, A23Q
B57: Y22S (designed binder)
chain: B1 chain with Q22S
B58: L93K (designed binder)
chain: B1 chain with Q22Y, L93K
B59: E43N (designed binder)
chain: B1 chain with Q22Y, E43N

Molecular target: T1, TNFR1
Assay: yeast display SC50

| apparent Kd (screen) | Binder |
| --- | --- |
| 0.49 nM | B1 |
| 0.335 nM | B2 |
| 0.539 nM | B3 |
| 12.5 nM | B4 |
| 0.653 nM | B5 |
| 0.405 nM | B6 |
| 0.49 nM | B7 |
| 4.83 nM | B8 |
| 0.653 nM | B9 |
| 0.653 nM | B10 |
| 1.16 nM | B11 |
| 1.05 nM | B12 |
| 0.956 nM | B13 |
| 0.718 nM | B14 |
| 0.539 nM | B15 |
| 2.05 nM | B16 |
| 0.869 nM | B17 |
| 20.2 nM | B18 |
| 3.99 nM | B19 |
| 1.4 nM | B20 |

| apparent Kd (screen) | Binder |
| --- | --- |
| 1.27 nM | B21 |
| 0.956 nM | B22 |
| 0.653 nM | B23 |
| 0.956 nM | B24 |
| 10.4 nM | B25 |
| 0.49 nM | B26 |
| 1.16 nM | B27 |
| 0.446 nM | B28 |
| 0.49 nM | B29 |
| 0.593 nM | B30 |
| 0.446 nM | B31 |
| 4.39 nM | B32 |
| 3.63 nM | B33 |
| 18.3 nM | B34 |
| 0.405 nM | B35 |
| 0.653 nM | B36 |
| 0.49 nM | B37 |
| 1.16 nM | B38 |
| 0.277 nM | B39 |
| 0.718 nM | B40 |

| apparent Kd (screen) | Binder |
| --- | --- |
| 16.7 nM | B41 |
| 1.86 nM | B42 |
| 0.252 nM | B43 |
| 0.277 nM | B44 |
| 0.593 nM | B45 |
| 1.05 nM | B46 |
| 2.48 nM | B47 |
| 0.142 nM | B48 |
| 12.5 nM | B49 |
| 0.252 nM | B50 |
| 0.653 nM | B51 |
| 3 nM | B52 |
| 0.653 nM | B53 |
| 0.869 nM | B54 |
| 0.539 nM | B55 |
| 0.539 nM | B56 |
| 0.79 nM | B57 |
| 0.718 nM | B58 |
| 0.446 nM | B59 |
